Tests used:
[1] = target: MS2 bacteriophage coat protein (Bacteriophage MS2) (UniProt P03612); conditions: likely CITED; stated Kd for cognate site
[2] = target: hnRNP A1/A2 (Homo sapiens) (UniProt P09651+P22626); conditions: apparent Kd, likely CITED; stated for A1 and A2; excess TS10 abolishes ABS stimulation in HeLa extract
Sequence of hnRNP A1/A2 (Homo sapiens) (P09651 whole entry, chain 1 of 2): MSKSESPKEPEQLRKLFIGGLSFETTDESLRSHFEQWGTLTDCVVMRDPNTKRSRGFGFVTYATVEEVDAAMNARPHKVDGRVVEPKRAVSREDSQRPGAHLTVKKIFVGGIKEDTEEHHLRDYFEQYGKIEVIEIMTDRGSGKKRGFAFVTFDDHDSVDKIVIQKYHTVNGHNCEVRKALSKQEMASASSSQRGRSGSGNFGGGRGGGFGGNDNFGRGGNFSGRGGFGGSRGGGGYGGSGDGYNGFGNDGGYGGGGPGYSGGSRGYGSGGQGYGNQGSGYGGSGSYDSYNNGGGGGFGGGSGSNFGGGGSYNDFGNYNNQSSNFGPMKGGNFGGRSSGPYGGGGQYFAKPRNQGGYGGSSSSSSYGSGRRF
Sequence of hnRNP A1/A2 (Homo sapiens) (P22626 whole entry, chain 2 of 2): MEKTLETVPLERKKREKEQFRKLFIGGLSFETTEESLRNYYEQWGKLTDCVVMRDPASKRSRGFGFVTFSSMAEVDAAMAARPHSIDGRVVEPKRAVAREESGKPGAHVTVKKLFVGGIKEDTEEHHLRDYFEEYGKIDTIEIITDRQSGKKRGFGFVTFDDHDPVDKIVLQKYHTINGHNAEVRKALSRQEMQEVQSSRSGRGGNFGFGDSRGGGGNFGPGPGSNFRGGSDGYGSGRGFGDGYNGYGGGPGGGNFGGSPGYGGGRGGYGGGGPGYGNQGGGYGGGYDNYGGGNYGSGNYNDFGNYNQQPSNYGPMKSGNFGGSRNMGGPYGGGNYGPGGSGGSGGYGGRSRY

Sequence of MS2 bacteriophage coat protein (Bacteriophage MS2) (P03612 2-130): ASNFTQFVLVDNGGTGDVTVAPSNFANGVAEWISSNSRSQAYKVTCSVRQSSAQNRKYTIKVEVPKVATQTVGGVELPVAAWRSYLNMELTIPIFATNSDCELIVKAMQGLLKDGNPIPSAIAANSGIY

| Substance | Kd [1] [nM] | Kd [2] [nM] |
| --- | --- | --- |
| MS2 stem-loop binding site in C5 pre-mRNA (position -26) | 1 | – |
| TS10 telomeric DNA oligo (60 nt, nine A1 binding sites) | – | < 5 |
